Assay results published in PMC2570549.

Columns and labels:
human thrombin (human) [1] = target: human thrombin (human)
human thrombin (human) [2] = target: human thrombin (human); remark: listed apart in the source

## Serp-1, secreted myxoma viral serpin (recombinant) (from UniProt P12393 1-369) (natural protein)
Human thrombin (human) [1]
  inhibition of thrombin (0.125 NIH units) by Serp-1 at 500 ng over 1 to 20 minutes, no heparin, discontinuous chromogenic assay: 86%
Human thrombin (human) [2]
  inhibition of thrombin activity (chromogenic substrate S-2238), 19 ng Serp-1 in the presence of heparin (0.2 IU), thrombin 0.002 NIH units: 75%
  inhibition of thrombin activity (chromogenic substrate S-2238), no heparin, thrombin 0.002 NIH units, Serp-1 1250, 600 and 300 ng (75%, 65%, 25%); no inhibition at or below 150 ng: 75%
